Data on one molecule can be found in US11124558B2, “Use of tetranectin and peptide agonists to treat inflammatory diseases” (The Feinstein Institutes for Medical Research, priority 2017, dated 2021).

In assay [1] the test system is lethal endotoxemia, Balb/C mice. As to the kind of experiment: Lethal endotoxemia (LPS) survival in mice. It counts as in vivo. Conditions: LPS 5 mg/kg i.p., male Balb/C mice, TN given i.p., survival monitored more than two weeks. On the procedure: (§1) FIG. 6A-6C: Recombinant TN protected mice against lethal endotoxemia and sepsis. Male Balb/C mice were subjected to lethal endotoxemia (LPS, 5 mg/kg, i.p., Panel A) or sepsis by cecal ligation and puncture (CLP, Panel B, C), and recombinant TN produced in HEK293 (Panel A, B) or E. coli (Panel C) was given intraperitoneally at indicated dosing regimens. Animal survival rates were monitored for more than two weeks to ensure no later death. Shown in Panel B and C is a summary of two independent experiments with similar results.
(§2) Effects of TN or peptide agonist on LSI. Balb/C mice (both male and female, 7-8 weeks, 20-25 g) are subjected to lethal endotoxemia or sepsis as described above, and the recombinant TN is injected (i.p.) at various doses and time points (2, 24, and 48 h) after the onset of endotoxemia or sepsis. Their effects on the outcomes of LSI is assessed by comparing the long-term (two-week) survival rates between the TN-treated groups with saline vehicle-treated controls. By varying the time points (e.g., 2, 12, 24 or 36 h) when the first dose of TN will be given to animals, the therapeutic windows for the TN-based therapy is estimated. […] It will be critical to continue these exciting experiments using other dosing regimens to further validate TN's protective role in LSI.
Effects of TN or peptide agonist supplementation on LSI. Balb/C mice (both male and female, 7-8 weeks, 20-25 g) are subjected to lethal endotoxemia or sepsis as described above, and the recombinant TN will be injected (i.p.) at various doses and time points (2, 24, and 48 h) after the onset of endotoxemia or sepsis. Their effects on the outcomes of LSI will be assessed by comparing the long-term (two-week) survival rates between the TN-treated groups with saline vehicle-treated controls. By varying the time points (e.g., 2, 12, 24 or 36 h) when the first dose of TN will be given to animals, the therapeutic windows for the TN-based therapy will be estimated.

Assay [2] relates to HMGB1 release, human peripheral blood mononuclear cells (HuPBMCs). The experiment in a line: LPS- or SAA-induced HMGB1 release in primary human peripheral blood mononuclear cells (Western blotting). It counts as cell-based. To be noted: for inhibition of LPS- or SAA-induced HMGB1 release: HuPBMCs / human monocytes, 16 h, TN from HEK293 or E. coli. Here is the method:
A, B, Primary murine peritoneal macrophages. C, Primary human peripheral blood mononuclear cells (HuPBMCs). Murine macrophages or human monocytes (HuPBMCs) were cultured in serum-free OPTI-MEM I medium, and stimulated with LPS or SAA for 16 h at the indicated concentrations. The extracellular HMGB1 levels were determined by Western blotting, and expressed as % of maximal stimulation by LPS or SAA alone.
Immune-modulating properties of tetranectin: To explore TN's immune-modulating properties, its effects on the LPS- and SAA-induced HMGB1 release were examined in murine macrophage and human monocyte cultures. […] This inhibition was TN-dose-dependent, evident at concentrations as low as 5.0 μg/ml, and became more dramatic (with 50-100% inhibition) at higher doses.
Effects of TN on the LPS-, IFN-γ-, or SAA-induced HMGB1 release. To elucidate the regulatory mechanisms of HMGB1 release, we will examine the impact of TN and its peptide agonists on the HMGB1 release induced by a wide array of inflammatory stimuli including the crude LPS [75], IFN-γ [76] and SAA [77], in macrophage and monocyte cultures. Primary peritoneal macrophages will be isolated from the Balb/C mice (both male and female, 7-8 weeks, 20-25 g) at 2-3 days after intraperitoneal injection of 2 ml thioglycollate broth (4%, Difco, Detroit, Mich.) as previously described. Human peripheral blood mononuclear cells (HuPBMCs) will be isolated from human blood obtained from the Long Island Blood Bank (NY) by density gradient centrifugation through Ficoll as previously described. At 80-90% confluence, macrophage/monocyte cultures will be stimulated with the crude LPS (Cat. No. L3012, Sigma-Aldrich), IFN-γ (Cat. No. 14777, Sigma-Aldrich), or SAA (Cat. No. 300-13, PeproTech) at different concentrations and for various time periods. The extracellular levels of HMGB1 in the culture medium will be determined by Western blotting as previously described.
(A western blot detects proteins with antibodies after separation by electrophoresis.)

The subject of assay [3] is lethal sepsis (CLP), Balb/C mice. As to the kind of experiment: Lethal sepsis by cecal ligation and puncture (CLP), survival in mice. It counts as in vivo. Conditions: male Balb/C mice, given intraperitoneally, survival monitored more than two weeks. Here is the method:
as §1
FIG. 9: N-terminal deletion TN mutant protected mice against lethal sepsis. Male Balb/C mice were subjected to lethal sepsis by cecal ligation and puncture (CLP), and recombinant deletion mutant (ΔTN) was given intrapeitoneally at indicated dosing regimens. Animal survival rates were monitored for more than two weeks to ensure no later death. Shown was a summary of two independent experiments with similar results.
FIG. 10: TN peptide agonist (P11) protected mice against lethal sepsis. Male Balb/C mice were subjected to lethal sepsis by cecal ligation and puncture (CLP), and TN peptide agonist, (P11, […]) (SEQ ID NO:11) was given intrapeitoneally at indicated dosing regimens. Animal survival rates were monitored for more than two weeks to ensure no later death. Shown was a summary of two independent experiments with N=8-18 animals per group.
FIG. 13A-13B: Tetranectin peptide agonists (P2 and P2-M/Nle) protected mice against lethal sepsis. Male Balb/C mice were subjected to lethal sepsis by cecal ligation and puncture (CLP), and TN peptide agonist, P2 (55-KVHMKCFLAFTQTKTF-70) (13A) (SEQ ID NO:2) or P2-M/Nle (54-TKVH(Nle)KSFLAFTQTKT-69) (13B) (SEQ ID NO:13) was given intraperitoneally at indicated dosing regimens. Animal survival rates were monitored for more than two weeks to ensure no later death. Shown was a summary of independent experiment with N=10 animals per group. The Kaplan-Meier method was used to compare the difference in mortality rates between groups. *, P<0.05 versus “CLP+Vehicle” group.
as §2
To explore the therapeutic potential of the TN-based strategies, the efficacy of TN-specific peptide agonists that would recapitulate the HMGB1-inhibiting capacities is tested using both animal models of lethal endotoxemia and sepsis. A series of peptide agonists have been designed, and chemically synthesized or biologically expressed as recombinant peptide (Table 1, FIG. 7). Peptide agonists will be given to the endotoxemic or septic mice intraperitoneally at various doses and time points after the onset of endotoxemia or sepsis. Their effects on the outcomes of LSI is assessed by comparing the long-term (two-week) survival rates between the peptide agonist groups and the saline vehicle-treated controls.
TN-specific peptide agonists are tested that would recapitulate the HMGB1-inhibiting capacities using both animal models of lethal endotoxemia and sepsis. Peptide agonists are given to the endotoxemic or septic mice intraperitoneally at various doses and time points after the onset of endotoxemia or sepsis. […]

B1: tetranectin (protein, listed as Homo sapiens)
chain: EPPTQKPKKIVNAKKDVVNTKMFEELKSRLDTLAQEVALLKEQQALQTVCLKGTKVHMKCFLAFTQTKTFHEASEDCISRGGTLGTPQTGSENDALYEYLRQSVGNEAEIWLGLNDMAAEGTWVDMTGARIAYKNWETEITAQPDGGKTENCAVLSGAANGKWFDKRCRDQLPYICQFGIV
On to B1, for which the “protection against lethal endotoxemia (animal survival)” value in assay [1] was “significant protection”; in assay [1] (listed as Recombinant TN), “protected”; in assay [1] (listed as recombinant TN), “significant protection”. Moreover, the figures for the “inhibition of LPS- or SAA-induced HMGB1 release” value in assay [2] and in assay [2] (listed as recombinant human TN protein) were “dose-dependently inhibited” and “capable of inhibiting”, respectively. The “lowest concentration at which inhibition of HMGB1 release was evident” value in assay [2] (human monocytes) turned out to be 5.0 µg/mL. Moreover, the “inhibition of HMGB1 release at higher doses” value in assay [2] (human monocytes, doses above 5.0 μg/ml) is 50-100%. Also, the “protection against lethal sepsis (animal survival)” value in assay [3] is “significant protection”; in assay [3] (listed as Recombinant TN) it was “protected”; in assay [3] (listed as recombinant TN), “significant protection”.
